Experimental findings from patent publication US20230243823, “BIOMARKER SENSOR-BASED DETECTION OF DISEASE-SPECIFIC BIOMARKERS” (FORSCHUNGSZENTRUM JÜLICH GMBH, published 2023) are described below.

In the data set the target is lactate dehydrogenase (PfLDH) (Plasmodium falciparum, UniProt Q76NM3 Q76NM3:1-316). The data set can be described thus: sandwich plasmon-enhanced fluorescence apta-immunosensor; PfLDH captured by anti-pLDH on AuNPs from diluted human blood; 0.1 uM aptamer in 10 mM PBS with 1 mM MgCl2 pH 7.1; signal orders of magnitude above PvLDH. Conditions: tags: obtained by bacterial expression; chain copies: 4. As for the experimental part:
Uninfected human blood was diluted 1:100 in 25 mM Tris buffer to reduce sample turbidity. The desired amount of Plasmodium falciparum lactate dehydrogenase (P<DH) was added to 1 ml of a diluted solution of the sample to obtain analyte concentrations ranging from 1 fM to 1 μm (based on the undiluted blood). The functionalised substrates were incubated with 1 ml of contaminated blood solution for 2 hours at room temperature.
The specificity of the apta immunosensor was tested against lactate dehydrogenase of Plasmodium vivax (P<LDH), which is 90% identical to P<LDH. The P<LDH was added to uninfected human blood (diluted 1:100 in 1 mL 25 mM Tris buffer) to obtain the highest analyte concentration tested in the calibration curve (1 μM based on undiluted whole blood).

B1: malaria 2008s aptamer (ssDNA)
DNA: CTGGGCGGTAGAACCATAGTGACCCAGCCGTCTAC
Consider B1, for which the binding result is reported as “binds”.
